Test results published in patent US9950027.
Changes are numbered by the printed parent chain. One block for each binder: values may come before it. Side-chain parts run from the residue outwards. [ ]: non-standard residue; d: D form.

Tests used:
Assay in all cases: cell-based or functional assay
[1] = molecular target: recombinant human type 2 Formyl peptide receptor (FPR2) (human) (UniProt P25090)
[2] = molecular target: human GLP-2 receptor (human) (UniProt O95838)
[3] = molecular target: human GLP-1 receptor (human) (UniProt P43220)
human GLP-1 receptor (human), sequence (P43220 24-463): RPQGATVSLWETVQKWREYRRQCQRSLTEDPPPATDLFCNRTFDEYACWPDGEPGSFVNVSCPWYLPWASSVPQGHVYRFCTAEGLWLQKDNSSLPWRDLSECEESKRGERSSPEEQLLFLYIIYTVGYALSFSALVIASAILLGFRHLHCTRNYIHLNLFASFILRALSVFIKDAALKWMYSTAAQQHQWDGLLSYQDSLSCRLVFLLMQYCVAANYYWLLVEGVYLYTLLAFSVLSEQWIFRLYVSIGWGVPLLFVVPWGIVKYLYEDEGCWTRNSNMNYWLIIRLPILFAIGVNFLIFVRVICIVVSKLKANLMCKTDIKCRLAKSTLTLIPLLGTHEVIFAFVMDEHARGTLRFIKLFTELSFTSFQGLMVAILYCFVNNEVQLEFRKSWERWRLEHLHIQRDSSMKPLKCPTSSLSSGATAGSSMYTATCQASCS

human GLP-2 receptor (human), sequence (O95838 whole entry): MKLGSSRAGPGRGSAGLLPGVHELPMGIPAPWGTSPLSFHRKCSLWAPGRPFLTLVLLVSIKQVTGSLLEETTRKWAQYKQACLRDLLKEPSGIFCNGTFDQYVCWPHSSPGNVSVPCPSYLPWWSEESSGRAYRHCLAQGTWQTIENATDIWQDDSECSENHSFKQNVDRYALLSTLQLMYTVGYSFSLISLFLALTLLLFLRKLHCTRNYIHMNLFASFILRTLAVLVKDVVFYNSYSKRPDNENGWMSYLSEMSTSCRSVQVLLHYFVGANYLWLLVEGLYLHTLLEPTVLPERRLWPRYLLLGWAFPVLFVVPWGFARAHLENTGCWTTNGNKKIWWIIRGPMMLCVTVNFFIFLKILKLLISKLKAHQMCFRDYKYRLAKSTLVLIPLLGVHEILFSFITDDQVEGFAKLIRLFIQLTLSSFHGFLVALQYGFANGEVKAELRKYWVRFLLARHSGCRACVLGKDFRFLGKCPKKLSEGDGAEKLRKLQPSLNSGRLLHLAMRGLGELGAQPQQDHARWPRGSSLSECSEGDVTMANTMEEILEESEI
recombinant human type 2 Formyl peptide receptor (FPR2) (human), sequence (P25090 whole entry): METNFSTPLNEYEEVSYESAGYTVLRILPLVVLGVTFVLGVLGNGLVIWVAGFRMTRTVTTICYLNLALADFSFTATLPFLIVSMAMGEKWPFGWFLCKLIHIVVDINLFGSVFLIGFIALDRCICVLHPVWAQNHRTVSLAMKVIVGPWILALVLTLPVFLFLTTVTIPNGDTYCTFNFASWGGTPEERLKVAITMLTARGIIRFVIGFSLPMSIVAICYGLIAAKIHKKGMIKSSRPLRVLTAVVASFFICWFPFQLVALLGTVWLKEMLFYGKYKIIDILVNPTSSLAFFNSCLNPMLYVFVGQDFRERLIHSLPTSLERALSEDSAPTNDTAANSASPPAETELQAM

B1: Analogue 3 (Example 4, BAP-modified GLP-2 analogue): … (peptide)
peptide: HADGSFSDEMNTILDNLAARDFINWLIQTKITDK
modifications: N-terminal acetyl; Lys-Lys-Ac attached to the epsilon-amino group of the C-terminal Lys34; C-terminal amide
EC50 (nM), cAMP production (HTRF) [2]: 3.4 nM
Max efficacy in % of control peptide (cAMP production, HTRF) (% of control peptide) [2]: 101

Binder: Ac-HGEGTFTSDVSSYLEGQAAKEFIAWLVKGRGK([Lys-Lys-Ac])-NH2 [Analogue 2 (Example 4, BAP-modified GLP-1 analogue): …]
EC50 (nM), cAMP production (HTRF) [3]: 0.04 nM
Max efficacy in % of control peptide (cAMP production, HTRF) (% of control peptide) [3]: 102

Other lines, results leading:

agonist activity, % of the max response of Trp-Lys-Tyr-Met-Val-Met (SEQ ID NO: 114) [1]: 33%
Binder: Ac-AMVSEFLKQ[dA]WFIENEEQEYVQTVKKK([Lys-Ac])-NH2 [Analogue 6 (Example 4, BAP-modified AnxA1 N-terminal fragment): …]

EC50 (nM), cAMP production (HTRF) [2]: 5.9 nM
Max efficacy in % of control peptide (cAMP production, HTRF) (% of control peptide) [2]: 102
B2: Analogue 4 (Example 4, BAP-modified GLP-2 analogue): … (peptide)
peptide: B1 peptide with A2G
modifications: N-terminal acetyl; Lys-Lys-Ac attached to the epsilon-amino group of the C-terminal Lys34; C-terminal amide

EC50 (nM), cAMP production (HTRF) [2]: 8.9 nM
Max efficacy in % of control peptide (cAMP production, HTRF) (% of control peptide) [2]: 95.1
B3: Analogue 5 (Example 4, BAP-modified GLP-2 analogue): … (peptide)
peptide: B1 peptide
modifications: N-terminal acetyl; D-Ala at position 2; Lys-Lys-Ac attached to the epsilon-amino group of the C-terminal Lys34; C-terminal amide
